Paper PMC7237485

Biological target: HA-tagged WT WD40 (FBW7ΔDF) (human) (UniProt Q969H0)

Substance “Merkel cell polyomavirus small T antigen, wild type (natural protein)” has an LT protein turnover (t1/2) in a cycloheximide chase, 293 cells co-transfected with LT and sT; FBW7 is that of the cells, not the ΔDF construct greater than 10 h.
